Experiments:
CypD rotamase activity = target: T1, CypD rotamase activity (Homo sapiens, UniProt P30405); experiment: Rotamase (peptidylprolyl cis-trans isomerase) solvent jump assay; format: biochemical; details: relative to reactions without added enzyme; FIG. 12, 13
T1 construct: made in house; host or cells: E. coli (pMK12-GST-huCypD)
Method: Cyclophilin binding to ANT present in the SMP was determined using soluble recombinant GST-cyclophilin D (see Example 10, above). Rotamase (peptidylprolyl cis-trans isomerase) activity of the GST-CypD preparation was determined according to the “solvent jump” method of Kofron et al. (1991 Biochemistry 30: 6127-6134). Briefly, Ala-Ala-cis/trans-Pro-Phe-pNa was used as the rotamase substrate, coupled with α-chymotrypsin cleavage of all trans-Pro containing peptide to yield p-nitroanilide, detected by absorbance at 390 nm.

[1] = target: T2, ANT/BR PLS (human ANT3 and bacteriorhodopsin) (Homo sapiens, UniProt P30405); experiment: GST-CypD binding to proteoliposomes reconstituted with huANT3 and bacteriorhodopsin (ANT/BR PLS); details: FIG. 14
T2 construct: GST-huCypD: E. coli; Bacteriorhodopsin: purchased
T2 sequence (P30405 30-207): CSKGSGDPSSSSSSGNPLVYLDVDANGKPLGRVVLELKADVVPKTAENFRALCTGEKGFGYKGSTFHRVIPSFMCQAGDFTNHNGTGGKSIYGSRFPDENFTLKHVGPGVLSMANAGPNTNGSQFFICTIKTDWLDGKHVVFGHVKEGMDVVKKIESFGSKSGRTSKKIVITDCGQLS
Method: Preformed liposomes were prepared by a freeze/thaw/sonication procedure. Briefly, egg-yolk lecithin (240 mg) was suspended in 3 ml of reconstitution buffer (50 mM NaCl, 10 mM HEPES, pH 7.4). The suspension was pulsed with argon stream to remove oxygen, partially frozen by contacting the vessel with a dry ice/ethanol bath, and sonicated as described above for SMP except the sonication period was for 1 min. The freeze/sonication step was repeated at least 3-4 times until clarification of lipid suspension was achieved.
Small EconoColumns™ (BioRad, Hercules, Calif.) were filled with 1.7 gm of SM-2 BioBeads™ (BioRad), washed with methanol followed by water, and equilibrated with the reconstitution buffer. […] Control (protein-free) liposomes were prepared in parallel by adding 0.5 ml of the elution buffer (50 mM NaCl, 1 mM EDTA, 10 mM Hepes, 1.3% Triton X-100™) to 200 μl of the liposome suspension. Each mixture was vortexed, applied to the BioBeads™ SM-2 column and passed through the column 5-6 times. Formation of proteoliposomes was visualized by apparent turbidity of the solution. Non-entrapped MUP or ATP was removed either during pelleting of the proteoliposomes by centrifugation, or by filtration of the proteoliposome suspension on a column of Sephadex™ G-50 (Pharmacia, Piscataway, N.J.).
Bacteriorhodopsin (BR) was co-reconstituted into the ANT liposomes as follows. […]

[2] = target: T3, His-tagged huANT3 : CypD-GST interaction (Homo sapiens, UniProt P30405); experiment: Nickel bead immunoassay of huANT3:huCypD interaction (Western, anti-GST); format: binding
T3 construct: made in house; host or cells: His-huANT3: Trichoplusia ni cells infected with baculovirus (pMK4B-huANT3); GST-huCypD: E. coli (pMK12-GST-huCypD)
T3 sequence (P30405 30-207): as above
Method: Each portion was suspended in 1 ml of MSB with protease inhibitors (leupeptin, final concentration 10 ug/ml; pepstatin, final concentration 10 ug/ml; aprotinin, final concentration, 2 ug/ml; phenylmethylsulfonyl fluoride {PMSF}, final concentration, 100 μM; all from Sigma Chemical Co., St Louis, Mo.). The resuspended cell suspensions were frozen and thawed twice, then homogenized using a rotating teflon-coated probe and a close-fitting glass container (10 passes). The cellular homogenate was centrifuged (3,700 rpm, approximately 1,500×g) at 4° C. for 5 minutes; this supernatant from the first spin was saved. The pellet was washed with about 500 μl of MSB with protease inhibitors, centrifuged (3,800 rpm, approximately 1,600×g) at 4° C. for 5 minutes, and supernatant from this spin was combined with the supernatant from the first spin. The combined supernatant was centrifuged (14,000 rpm, approximately 20,800×g) at 4° C. for 15 minutes, and the pellet was resuspended in 300 μl of a 1:1 solution of (a) 20 mM MOPS and (b) MSB, wherein both (a) and (b) contain the previously described protease inhibitors. The resultant suspension was frozen and thawed three times.
One hundred (100) μl of T. ni mitochondria (9.83 μg/ml) was thawed slowly on ice and then centrifuged at 4° C. for 15 minutes to pellet mitochondria. […]
The extracts were evaluated by Western analysis. […]

[3] = target: T4, ANT present in the SMP (recombinant human ANT3) (Homo sapiens, UniProt P30405); experiment: GST-CypD binding to submitochondrial particles (SMP) from T. ni cells expressing His-tagged huANT3; details: 2.6 μM GST-CypD, 1 mg SMP; 0 hr, 3 hr, 6 hr; FIG. 11
T4 construct: made in house; host or cells: His-huANT3: submitochondrial particles of baculovirus-infected Trichoplusia ni cells; GST-huCypD: E. coli
T4 sequence (P30405 30-207): as above
Method: SMP preparation was according to a modification of Halestrap et al. (1998 Biochim. Biophys. Acta 1366:79-94), and all steps were performed at 4° C. Starting material was one liter of cell culture, corresponding to 1×10^9 T. ni cells. Cells were pelleted by centrifugation and stored frozen at −20° C. For isolation of mitochondria, the cell pellet was thawed and resuspended in 15 ml of mitochondrial isolation buffer (MIB, all reagents from Sigma, St. Louis, Mo., unless otherwise noted): 0.22 M mannitol, 70 mM sucrose, 10 mM Hepes, 0.2 mM EDTA, 0.2 mM 2-mercaptoethanol (2-ME), pH 7.2 plus a standard protease inhibitor cocktail (Roche Molecular Biochemicals, Indianapolis, Ind.). The suspension was subjected to two freeze-thaw cycles by shell-freezing the container in a dry ice/ETOH bath and then thawing the suspension at room temperature, and was then diluted with 20 ml of MIB. The suspension was next homogenized with 10 strokes in a Potter-Elvehjem homogenizer (rheostat setting 28). The resulting homogenate was further diluted with MIB to a volume of approximately 200 ml and centrifuged at 600×g at 4° C. for 10 min. […] Protein concentration was measured using the Pierce BCA (Pierce Chemical Co., Rockford, Ill.) according to the manufacturer's instructions. […]

T1 sequence (P30405 30-207): as above

## Ek-CypD: CypD liberated from the polyHis fusion tag following enterokinase cleavage
CypD rotamase activity
  rotamase activity: rotamase activity was also demonstrated

## GST-CypD: recombinant glutathione S-transferase-human cyclophilin D fusion protein expressed from pMK12-GST-huCypD
CypD rotamase activity
  rotamase activity: readily apparent rotamase activity
[1]
  binding of GST-CypD to ANT/BR PLS: readily apparent
[2]; His-tagged huANT3 present (lanes 2', 3') versus absent (lane 1')
  amount of CypD-GST retained on beads: visibly increased by roughly an order of magnitude
[2]; summary statement
  binding of CypD-GST to His-tagged ANT3 on a solid support: specifically binds
[3]
  GST-CypD in SMP pellet fractions: readily detectable

## His-CypD: recombinant polyHis-tagged human CypD fusion protein, purified on nickel columns or by FPLC
CypD rotamase activity
  rotamase activity: rotamase activity was also demonstrated
